Laboratory results as given in patent publication US20200062863A1 (CSL BEHRING, published 2020).

T1: human Factor XIIa-beta (human, UniProt P00748 354-615, limits assumed)
T1 construct: Bought from Enzyme Research Laboratories; also called FXIIa beta; FXIIa-beta
T1 sequence: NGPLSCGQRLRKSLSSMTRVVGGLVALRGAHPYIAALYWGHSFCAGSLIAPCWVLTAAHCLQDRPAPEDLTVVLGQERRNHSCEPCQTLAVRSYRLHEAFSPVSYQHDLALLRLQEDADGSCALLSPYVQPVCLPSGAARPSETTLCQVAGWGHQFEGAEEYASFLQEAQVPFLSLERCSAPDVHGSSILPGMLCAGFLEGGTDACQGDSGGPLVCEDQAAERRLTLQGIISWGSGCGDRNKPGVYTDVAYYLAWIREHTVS

B1: VR63 (antibody, V domains shown)
VH: EVQLLESGGGLVQPGGSLRLSCAASGFTFSKYIMQWVRQAPGKGLEWVSGIRPSGGTTVYADSVKGRFTISRDNSKNTLYLQMNSLRAEDTAVYYCARALPRSGYLISPHYYYYALDVWGQGTTVTVSS
VL: QSELTQPPSASGTPGQRVTISCSGSSSNIGRNYVYWYQQVPGTAPKLLIYSNNQRPSGVPDRFSGSKSGTSASLVISGLRSEDEADYYCAAWDNQVRLGFGGGTKLTVLG
notes: Libraries were built on germline stop templates, so frameworks may differ
B2: VR62 (antibody, V domains shown)
VH: EVQLLESGGGLVQPGGSLRLSCAASGFTFSKYIMQWVRQAPGKGLEWVSGIRPSGGTTVYADSVKGRFTISRDNSKNTLYLQMNSLRAEDTAVYYCARALPRSGYLISPHYYYYALDVWGQGTTVTVSS
VL: QSVLTQPPSASGTPGQRVTISCSGSSSNIGRNYVYWYQQLPGTAPKLLIYSNNQRPSGVPDRFSGSKSGTSASLAISGLRSEDEADYYCAAWDQQVRLDFGGGTKLTVL
notes: as for B1
B3: VR159 (antibody, V domains shown)
VH: EVQLLESGGGLVQPGGSLRLSCAASGFTFSKYIMQWVRQAPGKGLEWVSGIRPSGGTTVYADSVKGRFTISRDNSKNTLYLQMNSLRAEDTAVYYCARALPRSGYLVKHGYYYYALDVWGQGTTVTVSS
VL: QSELTQPPSASGTPGQRVTISCSGSSSNIGRNYVYWYQQVPGTAPKLLIYSNNQRPSGVPDRFSGSKSGTSASLVISGLRSEDEADYYCAAWDASLRGVFGGGTKLTVLG
notes: as for B1
B4: VR46 (antibody, V domains shown)
VH: EVQLLESGGGLVQPGGSLRLSCAASGFTFSKYIMQWVRQAPGKGLEWVSGIRPSGGTTVYADSVKGRFTISRDNSKNTLYLQMNSLRAEDTAVYYCARALPRSGYLISPHYYYYALDVWGQGTTVTVSS
VL: QSVLTQPPSASGTPGQRVTISCSGSSSNIGRNYVYWYQQLPGTAPKLLIYSNNQRPSGVPDRFSGSKSGTSASLAISGLRSEDEADYYCASWELPLRGVFGGGTKLTVL
notes: as for B1
B5: VR167 (antibody, V domains shown)
VH: EVQLLESGGGLVQPGGSLRLSCAASGFTFSKYIMQWVRQAPGKGLEWVSGIRPSGGTTVYADSVKGRFTISRDNSKNTLYLQMNSLRAEDTAVYYCARALPRSGYLMKTGYYYYALDVWGQGTTVTVSS
VL: QSELTQPPSASGTPGQRVTISCSGSSSNIGRNYVYWYQQVPGTAPKLLIYSNNQRPSGVPDRFSGSKSGTSASLVISGLRSEDEADYYCAAWDASLRGVFGGGTKLTVLG
notes: as for B1
B6: VR149 (antibody, V domains shown)
VH: EVQLLESGGGLVQPGGSLRLSCAASGFTFSKYIMQWVRQAPGKGLEWVSGIRPSGGTTVYADSVKGRFTISRDNSKNTLYLQMNSLRAEDTAVYYCARALPRSGYLMKKNYYYYALDVWGQGTTVTVSS
VL: QSELTQPPSASGTPGQRVTISCSGSSSNIGRNYVYWYQQVPGTAPKLLIYSNNQRPSGVPDRFSGSKSGTSASLVISGLRSEDEADYYCAAWDASLRGVFGGGTKLTVLG
notes: as for B1
B7: VR14 (antibody, V domains shown)
VH: EVQLLESGGGLVQPGGSLRLSCAASGFTFSKYIMQWVRQAPGKGLEWVSGIRPSGGTTVYADSVKGRFTISRDNSKNTLYLQMNSLRAEDTAVYYCARALPRSGYLISPHYYYYALDVWGQGTTVTVSS
VL: QSVLTQPPSASGTPGQRVTISCSGSSGMVEQNYVYWYQQLPGTAPKLLIYSNNQRPSGVPDRFSGSKSGTSASLAISGLRSEDEADYYCAAWDASLRGVFGGGTKLTVL
notes: as for B1
B8: VR39 (antibody, V domains shown)
VH: EVQLLESGGGLVQPGGSLRLSCAASGFTFSKYIMQWVRQAPGKGLEWVSGIRPSGGTTVYADSVKGRFTISRDNSKNTLYLQMNSLRAEDTAVYYCARALPRSGYLISPHYYYYALDVWGQGTTVTVSS
VL: QSVLTQPPSASGTPGQRVTISCSGSSSNIGRNYVYWYQQLPGTAPKLLIYSNNQRPSGVPDRFSGSKSGTSASLAISGLRSEDEADYYCASWWNDLRGVFGGGTKLTVL
notes: as for B1
B9: VR148 (antibody, V domains shown)
VH: EVQLLESGGGLVQPGGSLRLSCAASGFTFSKYIMQWVRQAPGKGLEWVSGIRPSGGTTVYADSVKGRFTISRDNSKNTLYLQMNSLRAEDTAVYYCARALPRSGYLVKKQYYYYALDVWGQGTTVTVSS
VL: QSELTQPPSASGTPGQRVTISCSGSSSNIGRNYVYWYQQVPGTAPKLLIYSNNQRPSGVPDRFSGSKSGTSASLVISGLRSEDEADYYCAAWDASLRGVFGGGTKLTVLG
notes: as for B1
B10: VR108 (antibody, V domains shown)
VH: EVQLLESGGGLVQPGGSLRLSCAASGFTFSKYIMQWVRQAPGKGLEWVSGINPATKTTVYADSVKGRFTISRDNSKNTLYLQMNSLRAEDTAVYYCARALPRSGYLISPHYYYYALDVWGQGTTVTVSS
VL: QSELTQPPSASGTPGQRVTISCSGSSSNIGRNYVYWYQQVPGTAPKLLIYSNNQRPSGVPDRFSGSKSGTSASLVISGLRSEDEADYYCAAWDASLRGVFGGGTKLTVLG
notes: as for B1
B11: VR53 (antibody, V domains shown)
VH: EVQLLESGGGLVQPGGSLRLSCAASGFTFSKYIMQWVRQAPGKGLEWVSGIRPSGGTTVYADSVKGRFTISRDNSKNTLYLQMNSLRAEDTAVYYCARALPRSGYLISPHYYYYALDVWGQGTTVTVSS
VL: QSVLTQPPSASGTPGQRVTISCSGSSSNIGRNYVYWYQQLPGTAPKLLIYSNNQRPSGVPDRFSGSKSGTSASLAISGLRSEDEADYYCAAWDQQVRKTFGGGTKLTVL
notes: as for B1
B12: VR103 (antibody, V domains shown)
VH: EVQLLESGGGLVQPGGSLRLSCAASGFTFSKYIMQWVRQAPGKGLEWVSGIDVPVRGTVYADSVKGRFTISRDNSKNTLYLQMNSLRAEDTAVYYCARALPRSGYLISPHYYYYALDVWGQGTTVTVSS
VL: QSELTQPPSASGTPGQRVTISCSGSSSNIGRNYVYWYQQVPGTAPKLLIYSNNQRPSGVPDRFSGSKSGTSASLVISGLRSEDEADYYCAAWDASLRGVFGGGTKLTVLG
notes: as for B1
B13: VR109 (antibody, V domains shown)
VH: EVQLLESGGGLVQPGGSLRLSCAASGFTFSKYIMQWVRQAPGKGLEWVSGINPATNTTVYADSVKGRFTISRDNSKNTLYLQMNSLRAEDTAVYYCARALPRSGYLISPHYYYYALDVWGQGTTVTVSS
VL: QSELTQPPSASGTPGQRVTISCSGSSSNIGRNYVYWYQQVPGTAPKLLIYSNNQRPSGVPDRFSGSKSGTSASLVISGLRSEDEADYYCAAWDASLRGVFGGGTKLTVLG
notes: as for B1
B14: VR101 (antibody, V domains shown)
VH: EVQLLESGGGLVQPGGSLRLSCAASGFTFSKYIMQWVRQAPGKGLEWVSGINPATRSTVYADSVKGRFTISRDNSKNTLYLQMNSLRAEDTAVYYCARALPRSGYLISPHYYYYALDVWGQGTTVTVSS
VL: QSELTQPPSASGTPGQRVTISCSGSSSNIGRNYVYWYQQVPGTAPKLLIYSNNQRPSGVPDRFSGSKSGTSASLVISGLRSEDEADYYCAAWDASLRGVFGGGTKLTVLG
notes: as for B1
B15: VR52 (antibody, V domains shown)
VH: EVQLLESGGGLVQPGGSLRLSCAASGFTFSKYIMQWVRQAPGKGLEWVSGIRPSGGTTVYADSVKGRFTISRDNSKNTLYLQMNSLRAEDTAVYYCARALPRSGYLISPHYYYYALDVWGQGTTVTVSS
VL: QSVLTQPPSASGTPGQRVTISCSGSSSNIGRNYVYWYQQLPGTAPKLLIYSNNQRPSGVPDRFSGSKSGTSASLAISGLRSEDEADYYCAAWDERVRLMFGGGTKLTVL
notes: as for B1
B16: VR99 (antibody, V domains shown)
VH: EVQLLESGGGLVQPGGSLRLSCAASGFTFSKYIMQWVRQAPGKGLEWVSGINPATMTTVYADSVKGRFTISRDNSKNTLYLQMNSLRAEDTAVYYCARALPRSGYLISPHYYYYALDVWGQGTTVTVSS
VL: QSELTQPPSASGTPGQRVTISCSGSSSNIGRNYVYWYQQVPGTAPKLLIYSNNQRPSGVPDRFSGSKSGTSASLVISGLRSEDEADYYCAAWDASLRGVFGGGTKLTVLG
notes: as for B1
B17: VR58 (antibody, V domains shown)
VH: EVQLLESGGGLVQPGGSLRLSCAASGFTFSKYIMQWVRQAPGKGLEWVSGIRPSGGTTVYADSVKGRFTISRDNSKNTLYLQMNSLRAEDTAVYYCARALPRSGYLISPHYYYYALDVWGQGTTVTVSS
VL: QSVLTQPPSASGTPGQRVTISCSGSSSNIGRNYVYWYQQLPGTAPKLLIYSNNQRPSGVPDRFSGSKSGTSASLAISGLRSEDEADYYCAAWDPQVRLAFGGGTKLTVL
notes: as for B1
B18: VR107 (antibody, V domains shown)
VH: EVQLLESGGGLVQPGGSLRLSCAASGFTFSKYIMQWVRQAPGKGLEWVSGINPATRTTVYADSVKGRFTISRDNSKNTLYLQMNSLRAEDTAVYYCARALPRSGYLISPHYYYYALDVWGQGTTVTVSS
VL: QSELTQPPSASGTPGQRVTISCSGSSSNIGRNYVYWYQQVPGTAPKLLIYSNNQRPSGVPDRFSGSKSGTSASLVISGLRSEDEADYYCAAWDASLRGVFGGGTKLTVLG
notes: as for B1
B19: VR160 (antibody, V domains shown)
VH: EVQLLESGGGLVQPGGSLRLSCAASGFTFSKYIMQWVRQAPGKGLEWVSGIRPSGGTTVYADSVKGRFTISRDNSKNTLYLQMNSLRAEDTAVYYCARALPRSGYLMKPGYYYYALDVWGQGTTVTVSS
VL: QSELTQPPSASGTPGQRVTISCSGSSSNIGRNYVYWYQQVPGTAPKLLIYSNNQRPSGVPDRFSGSKSGTSASLVISGLRSEDEADYYCAAWDASLRGVFGGGTKLTVLG
notes: as for B1

Molecular target: T1, human Factor XIIa-beta
Assay: SPR (Biacore A100), unpurified IgG4 supernatant captured on anti-human IgG, single FXIIa beta concentration (100 nM), 37 C, 1:1 fit; estimated
Experimental: Anti-human (Goat anti-human IgG (gamma) mouse adsorbed, Invitrogen, Cat No. H10500) was chemically immobilised on a CM-5 sensor surface using amine coupling chemistry. Culture supernatants were diluted 1/60 with running buffer before capture. Antibodies were captured for 180 seconds representing an average capture of 800 response units (RU). FXIIa beta was then injected at zero and 100 nM for 180 seconds, and dissociated for 180 seconds. All assays were conducted on a Biacore A100 instrument at 37 degrees Celsius and the data fitted to a 1:1 kinetic model.

Binder | Kd [nM]
B1 | 8.3
B2 | 5.81
B3 | 6.93
B4 | 6.67
B5 | 5.8
B6 | 5.12
B7 | 6.22
B8 | 5.63
B9 | 6.93
B10 | 2.81
B11 | 7.05
B12 | 2.87
B13 | 5.98
B14 | 3.33
B15 | 7.1
B16 | 9.19
B17 | 5.33
B18 | 2.45
B19 | 7.13
